We go through nine molecules from patent publication US20210038737A1 (OHIO STATE INNOVATION FOUNDATION, published 2021).

Primed or numbered codes have the meaning given here. [ ]: non-standard residue; d: D form. 1Nal = N[C@@H](Cc1cccc2ccccc12)C(=O)O; 2Nal = N[C@@H](Cc1ccc2ccccc2c1)C(=O)O; FITC′ = fluorescein isothiocyanate; Cha = N[C@@H](CC1CCCCC1)C(=O)O; Tle = CC(C)(C)[C@H](N)C(=O)O

B1: peptide 15: Ac-Cys-Arg-Arg-Arg-Phe-(2-Nal)-Gln-Cys-Thr-Arg-Tle-OH (peptide)
peptide: Ac-CRRRF[2Nal]QCTR[Tle]-OH
modifications: cysteine pairing not given here
notes: Synthetic peptide; assayed with DTT (reduced, linear); also called Compd 15; Compound 15
B2: peptide 14: Ac-Cys-Arg-Arg-Arg-Phe-(1-Nal)-Gln-Cys-Thr-Arg-Tle-OH (peptide)
peptide: Ac-CRRRF[1Nal]QCTR[Tle]-OH
modifications: cysteine pairing not given here
notes: Synthetic peptide; assayed with DTT (reduced, linear); also called Compd 14; Compound 14
B3: peptide 6: FITC-Cys-Arg-Arg-Arg-Phe-Trp-Gln-Cys-Thr-Arg-Tle-OH (peptide)
peptide: {FITC′}-CRRRFWQCTR[Tle]-OH
modifications: not fully specified; printed as FITC-Cys-Arg-Arg-Arg-Phe-Trp-Gln-Cys-Thr-Arg-Tle-OH; cysteine pairing not given here
notes: Synthetic labeled peptide; assayed with 2 mM TCEP (reduced, linear); also called Compd 6; Compound 6
B4: peptide 3: Ac-Arg-Arg-Phe-Trp-Gln-Cys-Thr-Arg-Cha-OH (peptide)
peptide: Ac-RRFWQCTR[Cha]-OH
SMILES: CC(=O)N[C@@H](CCCNC(=N)N)C(=O)N[C@@H](CCCNC(=N)N)C(=O)N[C@@H](Cc1ccccc1)C(=O)N[C@@H](Cc1c[nH]c2ccccc12)C(=O)N[C@@H](CCC(N)=O)C(=O)N[C@@H](CS)C(=O)N[C@H](C(=O)N[C@@H](CCCNC(=N)N)C(=O)N[C@@H](CC1CCCCC1)C(=O)O)[C@@H](C)O
notes: Synthetic peptide; also called Compd 3; Compound 3
B5: peptide 13: Ac-Arg-Arg-Phe-Trp-Cys-Cys-Thr-Arg-Tle-OH (peptide)
peptide: Ac-RRFWCCTR[Tle]-OH
modifications: cysteine pairing not given here
notes: Synthetic peptide; also called Compd 13; Compound 13
B6: peptide 7: Ac-Arg-Arg-Phe-Trp-Gln-Cys-Thr-Leu-Tle-OH (peptide)
peptide: Ac-RRFWQCTL[Tle]-OH
modifications: not fully specified; printed as Ac-Arg-Arg-Phe-Trp-Gln-Cys-Thr-Leu-Tle-OH
notes: Synthetic peptide; also called Compd 7; Compound 7
B7: peptide 12: Ac-Arg-Arg-Phe-Trp-(D-Cys)-Cys-Thr-Arg-Tle-OH (peptide)
peptide: Ac-RRFW[dC]CTR[Tle]-OH
modifications: cysteine pairing not given here
notes: Synthetic peptide; also called Compd 12; Compound 12
B8: peptide 11: Ac-Arg-Arg-Phe-Trp-(D-Pro)-Cys-Thr-Arg-Tle-OH (peptide)
peptide: Ac-RRFW[dP]CTR[Tle]-OH
SMILES: CC(=O)N[C@@H](CCCNC(=N)N)C(=O)N[C@@H](CCCNC(=N)N)C(=O)N[C@@H](Cc1ccccc1)C(=O)N[C@@H](Cc1c[nH]c2ccccc12)C(=O)N1CCC[C@@H]1C(=O)N[C@@H](CS)C(=O)N[C@H](C(=O)N[C@@H](CCCNC(=N)N)C(=O)N[C@H](C(=O)O)C(C)(C)C)[C@@H](C)O
notes: Synthetic peptide; also called Compd 11; Compound 11
B9: peptide 2: Ac-Arg-Arg-Phe-Trp-Gln-Cys-Thr-Arg-Ile-OH (peptide)
peptide: Ac-RRFWQCTRI-OH
notes: Synthetic peptide; also called Compd 2; Compound 2

The target of the first assay is T1, CAL PDZ domain (CALP5-His) (UniProt Q9HD26 288-371). The experiment in a line: FP competition, condition B: probe FAM-…-OH (100 nM) with 500 nM CALP5-His; competitor titrated. How it is done: Serial dilutions of each competitor peptide were prepared in PBS and the incubation solution was added to each. The combined solutions were gently mixed for 1 h at RT after which 20 uL sample was pipetted into 384-well black-on-black microplates and fluorescence polarization was measured using a TECAN Infinite M1000 plate reader. Data was processed to determine IC₅₀ using GraphPad PRISM ver. 6.0.
B1: the IC50 (in general, the concentration that gives 50% inhibition) is 1.49 µM.

Molecule B2 returned an IC50 of 1.77 µM.

The target in the next assay is T1, CAL PDZ domain (CALP5-His). The experiment in a line: direct FP, condition C: 50 nM labeled peptide, CALP5-His titrated. How it is done:
Condition C (denoted with superscript ^c): 50 nM labeled peptide was incubated with 2 mM TCEP in PBS at pH 7.4 containing 0.01% Triton-X100. CALP5-His was serially diluted in PBS containing 0.01% Triton-X100 to which was then added the peptide and TCEP solution. This solution was mixed for 1 h at RT then 20 uL was pipetted into 384-well microplates and fluorescence polarization was measured using a TECAN Infinite M1000 plate reader. KD values were calculated using KaleidaGraph v. 3.6 using the equation: […]
As for B3, the Kd – broadly, the constant that tells how readily two partners part at equilibrium – is 0.996 µM.

The target of another assay is T1, CAL PDZ domain (CALP5-His). The assay can be described thus: FP competition, condition A: probe peptide 26 (50 nM) with 100 nM CALP5-His; competitor titrated.
On to B4, for which the IC50 came to 7.88 µM.

The molecule B5 returned an IC50 of 8.01 µM.

For the molecule B6, the IC50 turned out to be 2.02 µM.

For the molecule B7, the IC50 turned out to be 10.3 µM.

The molecule B8 yielded an IC50 of 7.39 µM.

B9 returned an IC50 of 3.69 µM.
